Data from the nanobody polyreactivity screen of Harvey et al. (2022).

Assay: yeast display, Sf9 membrane polyspecificity reagent, FACS + sequencing; frameworks hold sequencing errors
In short: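 Sorting gates, low and high (top ~1%), were placed on anti-HA fluorescence to track expression and on streptavidin fluorescence to track reagent binding. A clone's polyreactivity label is taken from the gate it came out of. The reagent was 10% biotinylated, detergent-solubilized Sf9 membrane, applied for 1 hour at 4 °C to galactose-induced yeast display cells.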

Sequence	polyreactivity (PSR sort gate)
QVQLVESGGGLVQAGGSLRLSCAASGFIFATYVMGWYRQAPGKERELVAAISWSGSSTFYADSVKGRFTISRDNAKNTVYLQMNSLKPEDTAVYYCAALGDYVGNDYWGQGTQVTVSS	high polyreactivity
QVQLVESGGGLVQAGGSLRLSCAASGYIFALNAMGWYRQAPGKERELVASITGAGSTNYADSVKGRFTISRDNAKNTVYLQMNSLKPEDTAVYYCAKRTRRRGYYYWGQGTQVTVSS	high polyreactivity
QVQLVESGGGLVQAGGSLRLSCAASGFTFYYYAMGWYRQAPGKERELVATISSSGGSTHYADSVKGRFTISRDNAKNTVYLQMNSLKPEDTAVYYCAADSYWDQSHIRDYWGQGTQVTVSS	low polyreactivity
QVQLVESGGGLVQAGGSLRLSCAASGSIFVRYAMGWYRQAPGKERELVASIRSRGDSTYYADSVKGRFTISRDNAKNTVYLQMNSLKPEDTAVYYCAARRYPPRMDYWGQGTQVTVSS	high polyreactivity
QVQLVESGGGLVQAGGSLRLSCAASGSIFGSNAMGWYRQAPGKERELVAAISVRDGSTSYADSVKGRFTISRDNAKNTVYLQMNSLKPEDPAVYYCTAKSLAERYYRPEMDYWGQGTQVTVSS	low polyreactivity
QVQLVESGGGLVQAGGSLRLSCAASGFTFTRYAMGWYRQAPGKERELVAVITYSGDTSYADSVKGRFTISRDNAKNTVYLQMNSLKPEDTAVYYCAVERAYYSDTGRYGYDYWGQGTQVTVSS	high polyreactivity
QVQLVESGGGLVQAGGSLRLSCAASGYTIVSYAMGWERQAPGKERELVASIRWRGGRTYYADSVKGRFTISRDNAKNTVYLQMNSLKPEDTAVYYCAASTYYSPYVAHYGYWGQGTQVTVSS	high polyreactivity
QVQLVESRGVLVQAGGSLRLSCAASGSIFYFYAMGWYRQAPGKERELVAAISWSGGSTYYADSVKGRFTISRDTSKNTVYLQMHSLKPEDTPVYYCNAADYWYWENDYWGQGTQVTVSS	low polyreactivity
QVQLVESGGGLVQAGGSLRLSCAASGITTTVYAMGWYRQAPGKERELVAGISWSTSSTYYADSVKGRFTISRDNAKNTVYLQMNSLKPEDNAVYYCAVYTITGRVLRQGPLYRHYYWGQGTQVTVSS	high polyreactivity
QVQLVETGGGIVQARGRLRLSCAASVITFTGYAMGWYRPAPGKERELVAAITSGGGRTYYADSVKGRFTISRDNAKNTVYLLMNSLKPEDTAVYYCNARGQSRYGYWGQGTQVTVSS	high polyreactivity
QVQLVESGGGLVQAGGSLRLSCAASGSTFYYNGMGWYRQAPGKERELVARITRTGGSTYYADSVKGRFTISRDNAKNTVYLQMNSLKPEDTAVYYCNADYYSRTKRKYRYGYWGQGTQVTVSS	high polyreactivity
QVQLVESGGGLVQAGGSLRLSCAASGFTLWLNAMGWSRQAPGKERELVAAITTSDDGTYYADSVNGRFTISRDTAKNTVYLQMNSLKPEDTAVYYCAADYYSVLYDYWGQGTQVTVSS	low polyreactivity
QVQLLESGGGLGQAGGSLRLSCAASGIIFRDSGMGWYRQAPGKEREFVATITYSGGGTYYADSVKGRFTISRDHAKNTVYLQMNSLKPEDTAVYYCAAYPFYYDLAYDYWGQGTQVTVSS	low polyreactivity
QVQLVETGGGLVQAGGSLRLSCAHSGSIFASNAMGWYRHAPGKEREFVAAIRYSGGITYYADSVKGRFTISRDNAKNTVYLQMTSLKPEDTAVYYCAAYGWGNRWYSRFDYWGQGTQVTVSS	high polyreactivity
QVQLVESGGGLVQAGGSLRLSCAASGRTFWYYDKGWYRQAPGKERELVAAITNGDRTYYADSVKGRFTISRDNAKNTVYLQMNSLKPEDTAVYYCAKETWGTRHDYWGQGTQVTVSS	high polyreactivity
QVQLVELGGGLVQAGGSLRLSCAASGGTFPRYAMGWYRQAPGKERELVAAITSRGDRTYYADSVKGRFTISRDNAKNTVYLQMNSLKPEDTAVYYCAARLYYSSYGRVKMDYWGQGTQVTVSS	high polyreactivity

Sequence	polyreactivity (PSR sort gate)
QFQLVESGGGLVQAGGRLRLSCAASRSTFVLYDMGWYRQAPGKERELVAAISRSGDSTYYADSVKGRYTISRDNAKNTVYLQMNSLKPEDTAVYYCAAKRRISTGMDYWGQGTQVTVSS	high polyreactivity
QVQLEESGAGLVQAGGSLRLSCAASGRTFYRYAMGWYIQAPGKERELVAAITSGDRTYYADSVKGRFTISRDNALNTVYLQMNSLKPEYTAVYYCAARRDYWARYYYWGQGTQVTVSS	high polyreactivity
QVQLVESGGGLVQAGGSLRLSCAASGSIFDVYAMGWSRQAAGTERELVAAIDSGGSSTYYADSVKGRFTISRDNAKNSVYLQMNSLKPEDTAVYYCAARPYYSWNYDYWGQGTQVTVSS	low polyreactivity
QVQHVESGGGLVQAGGSLRLSCAASGLNLYSNAMGCYRQAPGNERELVAAISWIGASTYYADSVKGRFTISRDNAKNTVYLQMNSLKQEDTAVYYCATARYRGYPTYSYARDYCGQGTQVTVSS	high polyreactivity
QVQLVESGGRLVQAGGSLRLSCAASGSTFGVNTKGWYRQAPGKEREFVAAITYGGGGTYYADSVKGRFTISRDNAKNTVYLQMNSLKPEDTAVYYCAARRAPKYYWGQGTQVTVSS	high polyreactivity
QVQLVESGGGLVQAGGSLRLSCAASGNTFGIYAMGWYRQAPGKERELVAAISSGTSTNYADSVKGRFTISRDNAKNTVYLQMNSMKPEDTAVYYCNADDQYQDVREDYWGQGTQVTVSS	low polyreactivity
QVHLVESGGGLVQAGGSLRLRCAASGSIFLLYAMGWYRQPPGKGRELVAAITYSGGRTYADSVKGRFTISRDNAKNTGYLQMISLKPEDTAVNYCATDAPAPKYDYWGQGTQVTVSS	low polyreactivity
QVPLVESVGGLVQAGGSLRLSCAASGLTFWRYAMGWYRQAPGKEREFVAAISSGGSTNYADSVKGRFTISRDNAKNTVYLQMNSLKPEDTAVYYCNARYYHKRSTRVIFPYDYWGQGTQVTVSS	high polyreactivity
QVQLVESGGGLVQAGGSLRLSCAASGSIFGENAMGWYRQAPGKERELVASITESGVTTYYADSVKGRFTISRDNAKNTVYLQMNSLKPEDTAVYYFWGQGTQVTVSS	low polyreactivity
QVHLVESGGGLVQAGGSLRLSCAASGFTFRFYAMGCYIQAPGKERELVAAISSTGIRTYYADSLKGRFTISRDNSKNTDYLQMNSLKPEDTAVYYCAKLHRDSILDYWGQGTQVTVSS	high polyreactivity
QVQLVESGGGLVQAGGSLRLSCAASGSIFVTYDLGWYRQAAGKERELVAGISGSGSTNYADSVKGRFTISRDNAKNTVYLQMNSLKPEDTAVYYCNTDGLWSAEYDYWGQGTQVTVSS	low polyreactivity
QVQLVESGVGLVQAGGSLRLSCAASGSIFATNDMGWYRQAPGKERELVASISSGGGSTYYADSVKGRFTISRDNAKNTVYFQMNSLKPEDTAVYYCAADRGDTYTTDYDYWGQGTQVTLSS	low polyreactivity
QVQLVESGGGLVQAGGSLRLSCAASVRIIDINAMGWSRQAPRKEREFVAGITSVGSTNYADSEKGRFTISRDNAKNTDYLDMNSLKPEDTAVYYCAADTSVHSEVDYWGQGTQVTVSS	low polyreactivity
QVQLVESGGGLVQAGGILRLSCAASGRTFGLYAMGWYRQAPGKERELVAAISWGGGRTYYADSVKGRFTISRDNAKNTVDLQMNSVKPEYTAVYYCNAVYSPRYYVGGYDYWGQGTHVTVSS	high polyreactivity
QVHLVESGGGLVQAGGSLRLSCAASGSTFYYYVMGWYRQAPGKETELVAAINSGGSTYYADSVKGRFTISRDNAKNTVYLQMNSLKPEDTAVYYCAKSWSYWYQYYYSGQGTQVTVSS	low polyreactivity
QVQIVESGGGLVQAGGSLRISCAASGFTFYPYTMGWYRQAPGKEREFVAAISWNCGSTYYADSVKGRFTISCDNAKNTVYLQMNSLKPEDSAVYYCAKRSYRSSARELDYWGQGTQVTVSS	low polyreactivity
